# Test results: PMC10338078
# Molecular target: Drosophila Deltex WWE2 domain (residues 26-261; Dx1A*) (Drosophila) (UniProt Q23985)
# Experiment: AUC
# Chain of UniProt Q23985 (Q23985 26-261): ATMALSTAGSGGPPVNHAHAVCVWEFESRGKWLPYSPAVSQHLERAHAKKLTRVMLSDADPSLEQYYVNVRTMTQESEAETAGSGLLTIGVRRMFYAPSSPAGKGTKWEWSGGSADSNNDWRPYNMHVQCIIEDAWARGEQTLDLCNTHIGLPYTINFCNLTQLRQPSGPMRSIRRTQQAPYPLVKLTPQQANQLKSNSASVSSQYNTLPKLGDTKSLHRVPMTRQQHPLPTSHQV
substance,measurement,value
Drosophila Notch ANK domain (Nank1-7*) R2007A (from UniProt P07207 1901-2048) (domain or fragment),weight-averaged sedimentation coefficient (sw) of a 45 μM 1:1 mixture,3.51e-13 s
